Measured values taken from patent US20180155451A1 (published 2018).

T1: FcγRIIb extracellular domain with C-terminal His tag (human, UniProt P31994 43-217)
T1 construct: extracellular domain; Soluble receptor expressed in FreeStyle293 cells, used as analyte in Biacore; also called FcgRIIb; 2b; not shown: His tag attached to the C terminus
T1 sequence (looked up): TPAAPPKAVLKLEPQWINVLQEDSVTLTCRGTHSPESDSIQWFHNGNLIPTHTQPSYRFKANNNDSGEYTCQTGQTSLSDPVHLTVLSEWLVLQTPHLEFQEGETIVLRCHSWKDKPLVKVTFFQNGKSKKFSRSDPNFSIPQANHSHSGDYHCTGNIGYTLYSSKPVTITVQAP

B1: GpH7-A5/GpH7-B3 variant I336_15Y/GpL16-k0 (heterodimerized antibody, He Ab) (antibody, human IgG1, kappa)
heavy 1: not shown
heavy 2: not shown
light: DIVMTQSPLSLPVTPGEPASISCQASESLVHSNRNTYLHWYLQKPGQSPQLLIYKVSNRFSGVPDRFSGSGSGTDFTLKISRVEAEDVGVYYCSQNTHVPPTFGQGTKVEIERTVAAPSVFIFPPSDEQLKSGTASVVCLLNNFYPREAKVQWKVDNALQSGNSQESVTEQDSKDSTYSLSSTLTLSKADYEKHKVYACEVTHQGLSSPVTKSFNRGEC
notes: Anti-glypican-3 IgG1 heterodimerized antibody; the alteration stands only in the GpH7-B3 chain; Positions in EU numbering; also called I336Y
B2: GpH7-A5/GpH7-B3 variant I336_19Q/GpL16-k0 (heterodimerized antibody, He Ab) (antibody, human IgG1, kappa)
heavy 1: not shown
heavy 2: not shown
light: B1 light
notes: Anti-glypican-3 IgG1 heterodimerized antibody; the alteration stands only in the GpH7-B3 chain; Positions in EU numbering; also called I336Q
B3: GpH7-A5/GpH7-B3 variant K334_10E/GpL16-k0 (heterodimerized antibody, He Ab) (antibody, human IgG1, kappa)
heavy 1: not shown
heavy 2: not shown
light: B1 light
notes: Anti-glypican-3 IgG1 heterodimerized antibody; the alteration stands only in the GpH7-B3 chain (K439E); GpH7-A5 carries D356K/H435R; Positions in EU numbering; also called K334E
B4: GpH7-A5/GpH7-B3 variant K334_13S/GpL16-k0 (heterodimerized antibody, He Ab) (antibody, human IgG1, kappa)
heavy 1: not shown
heavy 2: not shown
light: B1 light
notes: Anti-glypican-3 IgG1 heterodimerized antibody; the alteration stands only in the GpH7-B3 chain; Positions in EU numbering; also called K334S
B5: GpH7-A5/GpH7-B3 variant K334_14T/GpL16-k0 (heterodimerized antibody, He Ab) (antibody, human IgG1, kappa)
heavy 1: not shown
heavy 2: not shown
light: B1 light
notes: Anti-glypican-3 IgG1 heterodimerized antibody; the alteration stands only in the GpH7-B3 chain; Positions in EU numbering; also called K334T
B6: GpH7-A5/GpH7-B3 variant K334_15Y/GpL16-k0 (heterodimerized antibody, He Ab) (antibody, human IgG1, kappa)
heavy 1: not shown
heavy 2: not shown
light: B1 light
notes: Anti-glypican-3 IgG1 heterodimerized antibody; the alteration stands only in the GpH7-B3 chain; Positions in EU numbering; also called K334Y
B7: GpH7-A5/GpH7-B3 variant K334_19Q/GpL16-k0 (heterodimerized antibody, He Ab) (antibody, human IgG1, kappa)
heavy 1: not shown
heavy 2: not shown
light: B1 light
notes: Anti-glypican-3 IgG1 heterodimerized antibody; the alteration stands only in the GpH7-B3 chain; Positions in EU numbering; also called K334Q
B8: GpH7-A5/GpH7-B3 variant K334_20W/GpL16-k0 (heterodimerized antibody, He Ab) (antibody, human IgG1, kappa)
heavy 1: not shown
heavy 2: not shown
light: B1 light
notes: Anti-glypican-3 IgG1 heterodimerized antibody; the alteration stands only in the GpH7-B3 chain; Positions in EU numbering; also called K334W
B9: GpH7-A5/GpH7-B3 variant (H268D)/GpL16-k0 (antibody, human IgG1, kappa)
heavy 1: not shown
heavy 2: not shown
light: B1 light
notes: also called H268_09D; He Ab
B10: GpH7-A5/GpH7-B3 variant (A330F)/GpL16-k0 (antibody, human IgG1, kappa)
heavy 1: not shown
heavy 2: not shown
light: B1 light
notes: also called A330_04F; He Ab
B11: GpH7-A5/GpH7-B3 variant (A330M)/GpL16-k0 (antibody, human IgG1, kappa)
heavy 1: not shown
heavy 2: not shown
light: B1 light
notes: also called A330_06M; He Ab
B12: GpH7-A5/GpH7-B3 variant (A330P)/GpL16-k0 (antibody, human IgG1, kappa)
heavy 1: not shown
heavy 2: not shown
light: B1 light
notes: also called A330_05P; He Ab
B13: GpH7-A5/GpH7-B3 variant (H268A)/GpL16-k0 (antibody, human IgG1, kappa)
heavy 1: not shown
heavy 2: not shown
light: B1 light
notes: also called H268_02A; He Ab
B14: GpH7-A5/GpH7-B3 variant (H268E)/GpL16-k0 (antibody, human IgG1, kappa)
heavy 1: not shown
heavy 2: not shown
light: B1 light
notes: also called H268_10E; He Ab
B15: GpH7-A5/GpH7-B3 variant (K326D)/GpL16-k0 (antibody, human IgG1, kappa)
heavy 1: not shown
heavy 2: not shown
light: B1 light
notes: also called K326_09D; He Ab
B16: GpH7-A5/GpH7-B3 variant (K326I)/GpL16-k0 (antibody, human IgG1, kappa)
heavy 1: not shown
heavy 2: not shown
light: B1 light
notes: also called K326_07I; He Ab
B17: GpH7-A5/GpH7-B3 variant (K326T)/GpL16-k0 (antibody, human IgG1, kappa)
heavy 1: not shown
heavy 2: not shown
light: B1 light
notes: also called K326_14T; He Ab
B18: GpH7-A5/GpH7-B3 variant (K334D)/GpL16-k0 (antibody, human IgG1, kappa)
heavy 1: not shown
heavy 2: not shown
light: B1 light
notes: also called K334_09D; He Ab
B19: GpH7-A5/GpH7-B3 variant (K334E)/GpL16-k0 (antibody, human IgG1, kappa)
heavy 1: not shown
heavy 2: not shown
light: B1 light
notes: also called K334_10E; He Ab
B20: GpH7-A5/GpH7-B3 variant (K334I)/GpL16-k0 (antibody, human IgG1, kappa)
heavy 1: not shown
heavy 2: not shown
light: B1 light
notes: also called K334_07I; He Ab
B21: GpH7-A5/GpH7-B3 variant (S298A)/GpL16-k0 (antibody, human IgG1, kappa)
heavy 1: not shown
heavy 2: not shown
light: B1 light
notes: also called S298_02A; GpH7-A5/GpH7-B3-15-02A/GpL16-k0

These binders were tested against T2, FcγRIIIa extracellular domain with C-terminal His tag (human, UniProt P08637 17-208) (assay: SPR (Biacore); ratio of He/Con_3a (FcγRIIIa) to He/Con_2b (FcγRIIb)).
T2 construct: extracellular domain; Soluble receptor expressed in FreeStyle293 cells, used as analyte in Biacore; also called FcgRIIIa; 3a; not shown: His tag attached to the C terminus
Method in brief: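 SPR, 25 °C, HBS-EP+. Ab captured via immobilized antigen peptide (CM5 amine coupling or SA biotin); FcγR injected as analyte. Regen: 10 mM glycine-HCl pH 1.5.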

T2 sequence (P08637 17-208): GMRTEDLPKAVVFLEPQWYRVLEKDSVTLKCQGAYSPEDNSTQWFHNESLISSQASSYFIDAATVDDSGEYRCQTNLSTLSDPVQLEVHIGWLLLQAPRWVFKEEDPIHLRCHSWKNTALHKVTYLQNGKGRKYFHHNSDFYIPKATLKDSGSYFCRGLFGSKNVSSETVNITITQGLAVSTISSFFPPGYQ

| Binder | IIIa/IIb (He_3a/2b) |
| --- | --- |
| B1 | 1.28 ratio |
| B2 | 1.59 ratio |
| B3 | 1.58 ratio |
| B4 | 1.31 ratio |
| B5 | 1.23 ratio |
| B6 | 1.29 ratio |
| B7 | 1.25 ratio |
| B8 | 1.23 ratio |

The binders below were run against T2, FcγRIIIa extracellular domain with … (assay: SPR (Biacore), antibody captured via antigen peptide, FcγR as analyte; binding amount relative to control heterodimerized antibody).
Procedure: (§1) The heterodimerized antibodies He Abs in which one of the H chains was introduced with an alteration were assayed for their binding activities to each activating FcγR and inhibitory FcγR according to the method described in Example 4. […] The activating FcγRs in FIGS. 26, 27, 28, and 29 are FcγRIa, FcγRIIa (R), FcγRIIa (H), and FcγRIIIa, respectively.
(§2) Analysis of interaction between objective antibody and the FcγR was carried out using Biacore T100 (GE Healthcare). HBS-EP+ (GE Healthcare) was used as the running buffer, and the measurement temperature was set to 25° C. Chips produced by immobilizing the antigen peptide by the amine coupling method to a Series S Sencor Chip CM5 (GE Healthcare), or alternatively, chips produced by allowing preliminarily biotinylated antigen peptides to interact with and immobilize onto a Series S Sensor Chip SA (certified) (GE Healthcare) were used. Antibodies of interest were captured onto an antigen peptide-immobilized chip, and allowed to interact to each FcγR diluted with running buffer. To regenerate and repeatedly use the chip, the antibodies captured on the chip were washed off by reacting 10 mM glycine-HCl, pH 1.5.

| Binder | He/Con_3a (IIIa binding) |
| --- | --- |
| B1 | 87.3 relative binding, GpH7-A5/GpH7-B3/GpL16-k0 = 100 |
| B2 | 92.5 relative binding, GpH7-A5/GpH7-B3/GpL16-k0 = 100 |
| B3 | 181 relative binding, GpH7-A5/GpH7-B3/GpL16-k0 = 100 |
| B4 | 145 relative binding, GpH7-A5/GpH7-B3/GpL16-k0 = 100 |
| B5 | 141 relative binding, GpH7-A5/GpH7-B3/GpL16-k0 = 100 |
| B6 | 141 relative binding, GpH7-A5/GpH7-B3/GpL16-k0 = 100 |
| B7 | 136 relative binding, GpH7-A5/GpH7-B3/GpL16-k0 = 100 |
| B8 | 128 relative binding, GpH7-A5/GpH7-B3/GpL16-k0 = 100 |

Each binder was assayed against T1, FcγRIIb extracellular domain with … in the same assay as above.
Procedure: as §1, §2

| Binder | He/Con_2b (IIb binding) |
| --- | --- |
| B1 | 68.2 relative binding, GpH7-A5/GpH7-B3/GpL16-k0 = 100 |
| B2 | 58.2 relative binding, GpH7-A5/GpH7-B3/GpL16-k0 = 100 |
| B3 | 114 relative binding, GpH7-A5/GpH7-B3/GpL16-k0 = 100 |
| B4 | 111 relative binding, GpH7-A5/GpH7-B3/GpL16-k0 = 100 |
| B5 | 115 relative binding, GpH7-A5/GpH7-B3/GpL16-k0 = 100 |
| B6 | 109 relative binding, GpH7-A5/GpH7-B3/GpL16-k0 = 100 |
| B7 | 109 relative binding, GpH7-A5/GpH7-B3/GpL16-k0 = 100 |
| B8 | 104 relative binding, GpH7-A5/GpH7-B3/GpL16-k0 = 100 |

The binders below were run against T3, FcgRIIIa F (human, UniProt P08637 17-208) (assay: SPR (Biacore); binding of the heterodimerized antibody relative to GpH7-A5/GpH7-B3/GpL16-k0 = 100).
T3 construct: extracellular domain; also called FcγRIIIa F; 3aF; not shown: His tag attached to the C terminus
T3 sequence (P08637 17-208): as above

| Binder | He/Con_3aF |
| --- | --- |
| B9 | 195 |
| B10 | 144 |
| B11 | 139 |
| B12 | 152 |
| B13 | 121 |
| B14 | 184 |
| B15 | 148 |
| B16 | 153 |
| B17 | 140 |
| B18 | 164 |
| B19 | 186 |
| B20 | 156 |
| B21 | 151 |
